The source of these data is US20160213766A1 (VENTRIA BIOSCIENCE, published 2016).

The data set deals with the molecule itself. As to the kind of experiment: Western blot under non-reducing, non-heated conditions; self-association.

B1: rice-derived CTB.OspA fusion protein (other)
chain: TPQNITDLCAEYHNTQIHTLNDKIFSYTESLAGKREMAIITFKNGATFQVEVPGSQHIDSQKKAIERMKDTLRIAYLTEAKVEKLCVWNNKTPHAIAAISMANPGPGPGCKQNVSSLDEKNSVSVDLPGEMKVLVSKEKNKDGKYDLIATVDKLELKGTSDKNNGSGVLEGVKADKSKVKLTISDDLGQTTLEVFKEDGKTLVSKKVTSKDKSSTEEKFNEKGEVSEKIITRADGTRLEYTGIKSDGSGKAKEVLKGYVLEGTLTAEKTTLVVKEGTVTLSKNIAKSGEVSVELNDADSSAATKKTAAWNSGTSTLTITVNSKKTKDLVFTKENTITVQQYDSAGTKLEGSAVEITKLDEIKNALK
notes: also called OspA-CTB fusion protein; rice CTB.OspA fusion protein
B1: the binding result was “binds”.
